{"source": "patent US20050124041A1", "about": "(YUHAN, published 2005)", "binders": {"B1": {"name": "monoclonal antibody produced from the hybridoma cell line TSK11 (antibody, IgG1, V domains shown)", "VH": "QVQLVQSGPELKKPGETVKISCKASGYTFTHYGMNWVKQAPGEGLKWMGWINTNTGEPRYDEEFKGRFAFSLETSASTAYLQINNLRREDTATYFCARYDSRGFDCWGQGTTLTVSS", "VL": "QIVLTQSPAIMSASLGERVTMTCTASSSISYNYFHWYQQRPGSSPKLWIYSSSNLASGVPPRISGSGSGTSYSLTISSMEAEDAATYYCHQYERSPWTFGGGTKLEIKR", "notes": "Mouse hybridoma antibody; also called TSK11 antibody"}}, "target": "T1, recombinant human tumor necrosis factor-α (Biosource PHC3011, Belgium) (human, UniProt P01375 77-233)", "T1 construct": "Bought recombinant protein; also called hTNFα; hTNF-α", "T1 sequence (P01375 77-233 limits assumed)": "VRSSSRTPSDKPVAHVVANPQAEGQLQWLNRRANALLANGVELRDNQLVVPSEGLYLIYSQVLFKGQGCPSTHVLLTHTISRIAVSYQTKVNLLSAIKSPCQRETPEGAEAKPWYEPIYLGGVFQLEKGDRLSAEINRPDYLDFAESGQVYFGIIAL", "experiment": "competitive ELISA: TSK11 pre-incubated with soluble hTNFα, then added to hTNFα-coated wells; Scatchard plot analysis (Friguet method)", "procedure": "In vitro binding affinity of TSK11 antibody against hTNFα was determined by ELISA assay. Here, each well was coated with 100 μl of recombinant hTNFα at a concentration of 4 μg/ml. Next, in Micro Tube (AXYGEN, U.S.A.) recombinant hTNFα was diluted with PBS solution supplemented with 0.02% bovine serum albumin to obtain the final concentration ranging from 5×10⁻⁹ M to 1×10⁻¹⁰ M. hTNFα diluents having various concentrations were mixed with 30 μg of TSK11 antibody and maintained at 37° C. for 2 hours. The mixed solution was distributed to the each well coated with the recombinant hTNFα, and incubated at 37° C. for 2 hours. Then, 100 μl of a horseradish peroxiadase substrate solution (Bio-rad, 172-1064) was added to the each well and kept at 37° C. for 3 minutes to induce color development. The absorbance of the each well was measured at 410 nm with ELISA reader (Dinatec inc., U.S.A.).\nApparent affinity was determined by calculating a reciprocal of the antigen concentration required in inhibiting 50% of the maximum binding in the competitive ELISA according to Scatchard plot analysis (Friguet E. et al., J. of Immunological Method 77: 305-319, 1985)."}
{"binder": "B1", "values": [{"measurement": "Kd", "result": 1.95, "unit": "nM"}]}
